Target: T1, FAP (Homo sapiens, UniProt Q12884)
T1 construct: expressed in transfected cells; host or cells: 293 cells stably transfected with FAP; cell extract
T1 sequence (Q12884 1-760): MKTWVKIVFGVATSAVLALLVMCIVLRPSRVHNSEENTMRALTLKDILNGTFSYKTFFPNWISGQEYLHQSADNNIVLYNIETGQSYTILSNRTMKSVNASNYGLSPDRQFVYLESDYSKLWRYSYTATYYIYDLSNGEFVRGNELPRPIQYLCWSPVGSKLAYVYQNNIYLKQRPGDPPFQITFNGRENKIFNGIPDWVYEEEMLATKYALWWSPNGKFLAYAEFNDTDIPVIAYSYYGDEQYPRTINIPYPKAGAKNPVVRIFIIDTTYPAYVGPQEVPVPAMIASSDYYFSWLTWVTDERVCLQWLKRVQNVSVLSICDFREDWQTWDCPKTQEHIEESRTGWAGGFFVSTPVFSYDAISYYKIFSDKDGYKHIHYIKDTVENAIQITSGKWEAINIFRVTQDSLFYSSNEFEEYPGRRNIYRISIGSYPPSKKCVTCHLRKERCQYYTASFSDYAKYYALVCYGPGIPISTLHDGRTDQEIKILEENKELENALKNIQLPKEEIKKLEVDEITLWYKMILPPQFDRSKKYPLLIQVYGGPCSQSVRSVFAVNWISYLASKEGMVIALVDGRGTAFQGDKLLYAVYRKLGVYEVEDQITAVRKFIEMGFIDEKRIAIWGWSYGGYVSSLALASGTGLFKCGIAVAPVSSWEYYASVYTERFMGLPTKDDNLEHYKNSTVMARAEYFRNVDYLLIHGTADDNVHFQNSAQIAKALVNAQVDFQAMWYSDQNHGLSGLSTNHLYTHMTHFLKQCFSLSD
Test: Assay for cleavage of MNA substrates by FAP
Format: biochemical
Conditions: 1 ng FAP enzyme (extract of FAP-transfected 293 cells), 20 μl 2.5 mM substrate, 1 hour at room temperature, fluorescence Ex 355/Em 405 nm, FAP-negative 293 control subtracted
Description: Assay for Cleavage of MNA Substrates by FAP: Buffer A: 100 mM Tris HCl pH 7.8, 100 mM NaCl Cell extract from 293 cells stably transfected with FAP prepared as described (see Park, et al., Fibroblast Activation Protein, a Dual Specificity Serine Protease expressed in human tumor stromal fibroblasts. (1999) J. Biol. Chem. 36505-12.). A similar extract was also prepared from parental 293 control cells without FAP. The FAP concentration in the FAP-transfected cell extract was estimated by immunoassay and 1 ng enzyme (diluted in buffer A) was used per assay. FAP-negative 293 control cell extract was used at the same dilution (also in buffer A) as a negative control. Substrate was initially dissolved in dimethylformamide at a concentration of 200 mM and diluted in buffer A to a final concentration of 2.5 mM. A few substrates were not soluble at this concentration and had to be diluted further. Assay Conditions: 10 μl 10% DMSO in buffer A 70 μl diluted FAP cell extract containing 1 ng FAP enzyme (OR control 293 cell extract without FAP) 20 μl 2.5 mM substrate Mix, incubate at room temperature for 1 hour, and measure fluorescence in Fluorostar fluorimeter at the following wavelengths: MNA conjugates: Excitation: 355 nm, Emission: 405 nm. The fluorescence measured in the samples treated with control 293 control cell extracts without FAP is subtracted from the values measured in the samples treated with 1 ng FAP enzyme.

With “[2-(4-Carboxymethyl-phenyl)-acetyl]-Aze-Ala-Gly-Pro-MNA” as the compound, how does the Cleavage read?
The Cleavage was 9.54 µM.

Which Cleavage does the source give for “[2-(4-Carboxymethyl-phenyl)-acetyl]-Pro-Ala-Gly-Pro-MNA (PAGP; N-terminal 4-carboxymethylphenylacetyl; C-terminal MNA; printed: Pro-Ala-Gly-Pro-)” here?
The Cleavage was 7.25 µM.

For “[2-(3-Carboxymethyl-phenyl)-acetyl]-N-MeIle-Ala-Gly-Pro-MNA (IAGP; N-terminal 3-carboxymethylphenylacetyl, N-methyl; C-terminal MNA; printed: Ile-Ala-Gly-Pro-)”, which Cleavage is on record?
Its Cleavage is 15.36 µM.

For “[2-(3-Carboxymethyl-phenyl)-acetyl]-N-MeVal-Ala-Gly-Pro-MNA (VAGP; N-terminal 3-carboxymethylphenylacetyl, N-methyl; C-terminal MNA; printed: Val-Ala-Gly-Pro-)”, which Cleavage is on record?
Its Cleavage is 9.52 µM.

With “[2-(2-Carboxymethyl-phenyl)-acetyl]-Pro-Ala-Gly-Pro-MNA (PAGP; N-terminal 2-carboxymethylphenylacetyl; C-terminal MNA; printed: Pro-Ala-Gly-Pro-)” as the compound, how does the Cleavage read?
The Cleavage was 0.94 µM.

With “[2-(4-Carboxymethyl-phenyl)-acetyl]-N-MeLeu-Ala-Gly-Pro-MNA (LAGP; N-terminal 4-carboxymethylphenylacetyl, N-methyl; C-terminal MNA; printed: Leu-Ala-Gly-Pro-)” as the compound, how does the Cleavage read?
Its Cleavage is 13.97 µM.

Which Cleavage does the source give for “[2-(4-Carboxymethyl-phenyl)-acetyl]-N-MeVal-Ala-Gly-Pro-MNA (VAGP; N-terminal 4-carboxymethylphenylacetyl, N-methyl; C-terminal MNA; printed: Val-Ala-Gly-Pro-)” here?
Its Cleavage is 13.39 µM.

With “[2-(3-Carboxymethyl-phenyl)-acetyl]-N-MeLeu-Ala-Gly-Pro-MNA (LAGP; N-terminal 3-carboxymethylphenylacetyl, N-methyl; C-terminal MNA; printed: Leu-Ala-Gly-Pro-)” as the compound, how does the Cleavage read?
The Cleavage was 12.00 µM.

With “[2-(3-Carboxymethyl-phenyl)-acetyl]-Pro-Ala-Gly-Pro-MNA (PAGP; N-terminal 3-carboxymethylphenylacetyl; C-terminal MNA; printed: Pro-Ala-Gly-Pro-)” as the compound, how does the Cleavage read?
Its Cleavage is 2.80 µM.

For “[2-(4-Carboxymethyl-phenyl)-acetyl]-N-MeIle-Ala-Gly-Pro-MNA (IAGP; N-terminal 4-carboxymethylphenylacetyl, N-methyl; C-terminal MNA; printed: Ile-Ala-Gly-Pro-)”, which Cleavage is on record?
The Cleavage was 16.36 µM.

Tested on: not listed separately
Test: Solubility test in a phosphate buffer
Format: physicochemical
Conditions: not given
Excerpt: The solubilities of the compounds of formula
in a phosphate buffer have been compared.

With `COc1cccc2c1C(=O)c1c(O)c3c(c(O)c1C2=O)C[C@@](O)(C(=O)CO)C[C@@H]3OC1CC(NC(=O)[C@@H]2CCCN2C(=O)CNC(=O)[C@H](C)NC(=O)[C@@H]2CCCN2C(=O)Cc2ccccc2)C(O)C(C)O1` (some centres unmarked) [B, reference compound] as the compound, how does the solubility read?
The solubility was under 2000 µg/mL.

From patent publication US20030211979A1, “FAP-activated anti-tumor compounds” (Boehringer Ingelheim Pharma GmbH & Co. KG, priority 2002, published 2003)
